How the values were obtained:
[1] = molecular target: Feline_OSMR_hlgG1_Fc (feline); test: indirect ELISA, fOSMR coated; OD ratio to antibody expression control
[2] = molecular target: Feline_OSMR_hlgG1_Fc (feline); test: SPR Biacore

Feline_OSMR_hlgG1_Fc (feline), sequence (chain, as listed by the source limits assumed, form in doubt): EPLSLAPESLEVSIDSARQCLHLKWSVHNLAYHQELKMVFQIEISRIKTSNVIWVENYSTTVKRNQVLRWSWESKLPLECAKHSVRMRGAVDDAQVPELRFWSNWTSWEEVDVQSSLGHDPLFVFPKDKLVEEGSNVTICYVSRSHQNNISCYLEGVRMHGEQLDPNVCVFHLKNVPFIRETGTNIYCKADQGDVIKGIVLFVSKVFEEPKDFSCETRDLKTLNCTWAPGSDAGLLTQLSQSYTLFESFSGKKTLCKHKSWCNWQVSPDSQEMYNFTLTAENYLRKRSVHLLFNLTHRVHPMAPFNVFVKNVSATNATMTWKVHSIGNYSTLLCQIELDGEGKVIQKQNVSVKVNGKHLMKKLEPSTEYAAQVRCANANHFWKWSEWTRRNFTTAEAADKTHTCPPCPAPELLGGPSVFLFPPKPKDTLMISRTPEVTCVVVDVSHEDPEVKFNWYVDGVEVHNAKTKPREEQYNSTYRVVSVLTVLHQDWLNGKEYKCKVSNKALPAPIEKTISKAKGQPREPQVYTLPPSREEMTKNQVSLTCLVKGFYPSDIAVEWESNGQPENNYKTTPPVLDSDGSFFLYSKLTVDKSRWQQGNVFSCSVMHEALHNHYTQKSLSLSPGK

Binder	ELISA ratio [1]	Kd [2]	koff [2]	kon [2]
Mu_19F07_VH (SEQ ID NO: 47)_Y33A (antibody, V domains shown) VH: EVKLVESEGGLVQPGSSMKLSCTASGFTFSDYAMAWVRQVPEKGLEWVANINYDGSSTYYLDSLKSRFIISRDNAKNILYLQMSSLKSEDTATYYCARGLTWDFDVWGTGTTVTVSS VL: DIVMTQSHKFMSPSVGDRVSITCKASQDVDTAVAWYQQKPGQSPKLLIYLASTRHTGVPDRFTGSGSGTDFTLTISNVQSEDLADYFCQQYSRFPLTFGAGTKLELKR	1.06 OD ratio	0.407 nM	0.000108 s⁻¹	266000 M⁻¹ s⁻¹
Mu_19F07_VH (SEQ ID NO: 47)_Y59A (antibody, V domains shown) VH: EVKLVESEGGLVQPGSSMKLSCTASGFTFSDYYMAWVRQVPEKGLEWVANINYDGSSTAYLDSLKSRFIISRDNAKNILYLQMSSLKSEDTATYYCARGLTWDFDVWGTGTTVTVSS VL: DIVMTQSHKFMSPSVGDRVSITCKASQDVDTAVAWYQQKPGQSPKLLIYLASTRHTGVPDRFTGSGSGTDFTLTISNVQSEDLADYFCQQYSRFPLTFGAGTKLELKR	0.74 OD ratio	0.4 nM	0.000141 s⁻¹	351000 M⁻¹ s⁻¹
Mu_09E09_VH (SEQ ID NO: 35)_Y50A (antibody, V domains shown) VH: DVKLVESGEGLVKPGGSLKLSCAASGFTFSSYAMSWVRQTPEKRLEWVAAISSGGDYIYYADTVKGRFTISRDNARNTLYLQMSSLKSEDTAMYYCTRDPITGTFAYWGQGTLVTVSA VL: DLQMTQTTSSLSASLGDRVTISCRASQDINNYLNWYQQKPDGTVKLLIYYTSTLHSGVPSRFSGSGSGTDYSLTISNLEQEDIATYFCQQGNTLPWTFGGGTKLEIKR	0.31 OD ratio	2.85 nM	0.00177 s⁻¹	622000 M⁻¹ s⁻¹
Mu_09E09_VL (SEQ ID NO: 37)_L94A (antibody, V domains shown) VH: DVKLVESGEGLVKPGGSLKLSCAASGFTFSSYAMSWVRQTPEKRLEWVAYISSGGDYIYYADTVKGRFTISRDNARNTLYLQMSSLKSEDTAMYYCTRDPITGTFAYWGQGTLVTVSA VL: DLQMTQTTSSLSASLGDRVTISCRASQDINNYLNWYQQKPDGTVKLLIYYTSTLHSGVPSRFSGSGSGTDYSLTISNLEQEDIATYFCQQGNTAPWTFGGGTKLEIKR	0.055 OD ratio	0.621 nM	0.00167 s⁻¹	2.68e+06 M⁻¹ s⁻¹
Mu_09E09_VL (SEQ ID NO: 37)_Y32A (antibody, V domains shown) VH: DVKLVESGEGLVKPGGSLKLSCAASGFTFSSYAMSWVRQTPEKRLEWVAYISSGGDYIYYADTVKGRFTISRDNARNTLYLQMSSLKSEDTAMYYCTRDPITGTFAYWGQGTLVTVSA VL: DLQMTQTTSSLSASLGDRVTISCRASQDINNALNWYQQKPDGTVKLLIYYTSTLHSGVPSRFSGSGSGTDYSLTISNLEQEDIATYFCQQGNTLPWTFGGGTKLEIKR	0.092 OD ratio	0.632 nM	0.00158 s⁻¹	2.51e+06 M⁻¹ s⁻¹
Mu_09E09_VH (SEQ ID NO: 35)_P100A (antibody, V domains shown) VH: DVKLVESGEGLVKPGGSLKLSCAASGFTFSSYAMSWVRQTPEKRLEWVAYISSGGDYIYYADTVKGRFTISRDNARNTLYLQMSSLKSEDTAMYYCTRDAITGTFAYWGQGTLVTVSA VL: DLQMTQTTSSLSASLGDRVTISCRASQDINNYLNWYQQKPDGTVKLLIYYTSTLHSGVPSRFSGSGSGTDYSLTISNLEQEDIATYFCQQGNTLPWTFGGGTKLEIKR	0.946 OD ratio	1.27 nM	0.000926 s⁻¹	729000 M⁻¹ s⁻¹
Mu_09E09_VH (SEQ ID NO: 35)_T102A (antibody, V domains shown) VH: DVKLVESGEGLVKPGGSLKLSCAASGFTFSSYAMSWVRQTPEKRLEWVAYISSGGDYIYYADTVKGRFTISRDNARNTLYLQMSSLKSEDTAMYYCTRDPIAGTFAYWGQGTLVTVSA VL: DLQMTQTTSSLSASLGDRVTISCRASQDINNYLNWYQQKPDGTVKLLIYYTSTLHSGVPSRFSGSGSGTDYSLTISNLEQEDIATYFCQQGNTLPWTFGGGTKLEIKR	0.388 OD ratio	1.94 nM	0.00187 s⁻¹	964000 M⁻¹ s⁻¹
Mu_10F07_VL (SEQ ID NO: 41)_Y50A (antibody, V domains shown) VH: DVKLVESGEGLVKPGGSLKLSCAASGFTFSSYAMSWVRQTPEKRLEWVTYISSGGDYFYYADTVKGRFTISRDNARNTLYLQMSSLKSEDTAMYYCTRDPITGTFAYWGQGTLVTVSA VL: DIQMTQTTSSLSASLGDRVTISCRASQDITNYLNWYQQKPDGTVKLLIYATSTLHSGVPSRFSGSGSGTDFSLTISNLEQEDIATYFCQQGHMLPWTFGGGTKLEIKR	0 OD ratio	0.00714 nM	1.73e-06 s⁻¹	242000 M⁻¹ s⁻¹
Mu_09E09_VH (SEQ ID NO: 35)_F105A (antibody, V domains shown) VH: DVKLVESGEGLVKPGGSLKLSCAASGFTFSSYAMSWVRQTPEKRLEWVAYISSGGDYIYYADTVKGRFTISRDNARNTLYLQMSSLKSEDTAMYYCTRDPITGTAAYWGQGTLVTVSA VL: DLQMTQTTSSLSASLGDRVTISCRASQDINNYLNWYQQKPDGTVKLLIYYTSTLHSGVPSRFSGSGSGTDYSLTISNLEQEDIATYFCQQGNTLPWTFGGGTKLEIKR	0.256 OD ratio	2.4 nM	0.00186 s⁻¹	772000 M⁻¹ s⁻¹
Mu_10F07_VH (SEQ ID NO: 39)_I101A (antibody, V domains shown) VH: DVKLVESGEGLVKPGGSLKLSCAASGFTFSSYAMSWVRQTPEKRLEWVTYISSGGDYFYYADTVKGRFTISRDNARNTLYLQMSSLKSEDTAMYYCTRDPATGTFAYWGQGTLVTVSA VL: DIQMTQTTSSLSASLGDRVTISCRASQDITNYLNWYQQKPDGTVKLLIYYTSTLHSGVPSRFSGSGSGTDFSLTISNLEQEDIATYFCQQGHMLPWTFGGGTKLEIKR	0 OD ratio	6.88 nM	0.000701 s⁻¹	102000 M⁻¹ s⁻¹
Mu_09E09_VL (SEQ ID NO: 37)_N34A (antibody, V domains shown) VH: DVKLVESGEGLVKPGGSLKLSCAASGFTFSSYAMSWVRQTPEKRLEWVAYISSGGDYIYYADTVKGRFTISRDNARNTLYLQMSSLKSEDTAMYYCTRDPITGTFAYWGQGTLVTVSA VL: DLQMTQTTSSLSASLGDRVTISCRASQDINNYLAWYQQKPDGTVKLLIYYTSTLHSGVPSRFSGSGSGTDYSLTISNLEQEDIATYFCQQGNTLPWTFGGGTKLEIKR	0.023 OD ratio	5.02 nM	0.00161 s⁻¹	321000 M⁻¹ s⁻¹
Mu_09E09_VH (SEQ ID NO: 35)_Y57A (antibody, V domains shown) VH: DVKLVESGEGLVKPGGSLKLSCAASGFTFSSYAMSWVRQTPEKRLEWVAYISSGGDAIYYADTVKGRFTISRDNARNTLYLQMSSLKSEDTAMYYCTRDPITGTFAYWGQGTLVTVSA VL: DLQMTQTTSSLSASLGDRVTISCRASQDINNYLNWYQQKPDGTVKLLIYYTSTLHSGVPSRFSGSGSGTDYSLTISNLEQEDIATYFCQQGNTLPWTFGGGTKLEIKR	0.052 OD ratio	2.54 nM	0.0024 s⁻¹	943000 M⁻¹ s⁻¹
Mu_09E09_VL (SEQ ID NO: 37)_G91A (antibody, V domains shown) VH: DVKLVESGEGLVKPGGSLKLSCAASGFTFSSYAMSWVRQTPEKRLEWVAYISSGGDYIYYADTVKGRFTISRDNARNTLYLQMSSLKSEDTAMYYCTRDPITGTFAYWGQGTLVTVSA VL: DLQMTQTTSSLSASLGDRVTISCRASQDINNYLNWYQQKPDGTVKLLIYYTSTLHSGVPSRFSGSGSGTDYSLTISNLEQEDIATYFCQQANTLPWTFGGGTKLEIKR	0.136 OD ratio	2.21 nM	0.00203 s⁻¹	918000 M⁻¹ s⁻¹
Mu_09E09_VH (SEQ ID NO: 35)_D99A (antibody, V domains shown) VH: DVKLVESGEGLVKPGGSLKLSCAASGFTFSSYAMSWVRQTPEKRLEWVAYISSGGDYIYYADTVKGRFTISRDNARNTLYLQMSSLKSEDTAMYYCTRAPITGTFAYWGQGTLVTVSA VL: DLQMTQTTSSLSASLGDRVTISCRASQDINNYLNWYQQKPDGTVKLLIYYTSTLHSGVPSRFSGSGSGTDYSLTISNLEQEDIATYFCQQGNTLPWTFGGGTKLEIKR	0.908 OD ratio	1.76 nM	0.00108 s⁻¹	612000 M⁻¹ s⁻¹

Reference: patent publication US20220177594A1
